These results are taken from paper PMC4148193, “Chromatin Insulator Factors Involved in Long-Range DNA Interactions and Their Role in the Folding of the Drosophila Genome” (PLoS Genetics, 2014).

In one data set the target is T1, BEAF32 (BEAF32B);CP190-C (Drosophila;Drosophila, UniProt Q94513;Q24478 1-282;599-1096, |).
T1 sequence 1: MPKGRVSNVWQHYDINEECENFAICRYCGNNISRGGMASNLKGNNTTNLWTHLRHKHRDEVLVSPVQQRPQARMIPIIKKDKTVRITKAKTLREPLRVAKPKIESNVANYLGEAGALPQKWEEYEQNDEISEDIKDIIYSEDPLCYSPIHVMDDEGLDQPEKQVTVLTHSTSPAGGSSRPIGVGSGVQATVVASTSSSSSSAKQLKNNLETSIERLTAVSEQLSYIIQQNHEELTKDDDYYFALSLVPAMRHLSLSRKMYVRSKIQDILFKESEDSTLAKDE
T1 sequence 2: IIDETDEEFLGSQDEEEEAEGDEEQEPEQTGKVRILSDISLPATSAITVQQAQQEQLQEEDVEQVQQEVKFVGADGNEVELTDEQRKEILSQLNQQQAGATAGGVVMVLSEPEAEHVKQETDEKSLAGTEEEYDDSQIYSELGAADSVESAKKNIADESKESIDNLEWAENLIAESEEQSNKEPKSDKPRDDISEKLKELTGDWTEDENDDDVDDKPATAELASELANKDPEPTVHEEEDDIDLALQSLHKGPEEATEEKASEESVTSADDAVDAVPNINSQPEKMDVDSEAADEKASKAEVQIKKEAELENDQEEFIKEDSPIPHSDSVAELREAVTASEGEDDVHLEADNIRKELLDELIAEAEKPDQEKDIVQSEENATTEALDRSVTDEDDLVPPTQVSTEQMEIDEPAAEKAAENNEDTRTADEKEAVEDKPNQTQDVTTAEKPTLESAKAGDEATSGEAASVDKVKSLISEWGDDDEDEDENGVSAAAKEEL
The experiment in a line: FCS/PIE-FCCS; 400 nM BEAF32, 50 nM CP190-C; diffusion time slightly decreased, BEAF32 stays bound, no bridging; FA/FCS: 30 mM Tris/HCl pH 7.5, 100 mM NaCl, 20 uM ZnSO4, 5 mM mercaptoethanol, 0.01 mg/ml BSA, 0.004% Tween20, 2.5 nM DNA; EMSA: 150 mM NaCl, 30 mM Tris/HCl pH. The note with it: protein: recombinant;recombinant; tags: N-term MBP; C-term 6xHis;N-term 6xHis; blunt. In general terms: Mobility shift assays separate free from complexed probe on a gel.

A further data set deals with T2, CP190-BTB/POZ (Drosophila, UniProt Q24478 1-134).
T2 sequence: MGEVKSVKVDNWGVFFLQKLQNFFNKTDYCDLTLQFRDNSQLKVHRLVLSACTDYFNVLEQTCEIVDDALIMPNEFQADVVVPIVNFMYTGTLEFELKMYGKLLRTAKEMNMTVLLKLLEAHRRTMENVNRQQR
The experiment in a line: fluorescence anisotropy; FA/FCS: 30 mM Tris/HCl pH 7.5, 100 mM NaCl, 20 uM ZnSO4, 5 mM mercaptoethanol, 0.01 mg/ml BSA, 0.004% Tween20, 2.5 nM DNA; EMSA: 150 mM NaCl, 30 mM Tris/HCl pH. The note with it: protein: recombinant; tags: His; chain copies: 2; blunt.

In the next data set the target is T3, Chromator-C (Drosophila, UniProt Q86BS3 601-926).
T3 sequence: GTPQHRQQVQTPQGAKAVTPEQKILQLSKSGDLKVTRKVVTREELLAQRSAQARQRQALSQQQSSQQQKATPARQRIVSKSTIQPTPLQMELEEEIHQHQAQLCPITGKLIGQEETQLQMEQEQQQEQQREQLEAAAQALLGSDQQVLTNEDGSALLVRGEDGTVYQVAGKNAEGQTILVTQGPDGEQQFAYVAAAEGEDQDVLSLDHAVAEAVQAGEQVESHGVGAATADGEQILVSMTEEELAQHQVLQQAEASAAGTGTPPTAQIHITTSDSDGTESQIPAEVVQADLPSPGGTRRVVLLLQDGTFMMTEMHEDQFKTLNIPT
The data set is described as above. The note with it: protein: recombinant; tags: N-term 6xHis; blunt.

For data set [1], the target named is T4, BEAF32 (BEAF32B);Chromator-C (Drosophila;Drosophila, UniProt Q94513;Q86BS3 1-282;601-926, |).
T4 sequence 1: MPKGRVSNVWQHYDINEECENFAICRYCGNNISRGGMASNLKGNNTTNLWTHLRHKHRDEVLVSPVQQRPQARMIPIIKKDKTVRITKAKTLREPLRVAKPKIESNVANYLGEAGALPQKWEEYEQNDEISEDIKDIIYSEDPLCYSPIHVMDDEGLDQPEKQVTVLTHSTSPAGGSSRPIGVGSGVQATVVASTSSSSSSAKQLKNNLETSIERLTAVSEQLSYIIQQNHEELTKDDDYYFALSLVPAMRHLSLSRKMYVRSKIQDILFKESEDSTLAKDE
T4 sequence 2: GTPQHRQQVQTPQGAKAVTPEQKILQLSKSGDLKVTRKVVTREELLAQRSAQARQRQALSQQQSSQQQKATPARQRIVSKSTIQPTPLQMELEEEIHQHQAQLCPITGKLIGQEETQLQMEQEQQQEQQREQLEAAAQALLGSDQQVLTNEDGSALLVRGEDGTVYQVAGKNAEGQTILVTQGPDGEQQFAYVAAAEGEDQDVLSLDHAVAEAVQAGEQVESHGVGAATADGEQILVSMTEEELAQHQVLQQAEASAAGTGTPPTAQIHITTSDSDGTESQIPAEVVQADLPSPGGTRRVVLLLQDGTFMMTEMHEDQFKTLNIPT
The experiment in a line: FCS/PIE-FCCS; 800 nM BEAF32, 100 nM Chromator-C; diffusion time slightly decreased, BEAF32 stays bound, no bridging; FA/FCS: 30 mM Tris/HCl pH 7.5, 100 mM NaCl, 20 uM ZnSO4, 5 mM mercaptoethanol, 0.01 mg/ml BSA, 0.004% Tween20, 2.5 nM DNA; EMSA: 150 mM NaCl, 30 mM Tris/HCl pH. The note with it: protein: recombinant;recombinant; tags: N-term MBP; C-term 6xHis;N-term 6xHis; blunt.

In a further data set the target is T5, BEAF32 (BEAF32B) (Drosophila, UniProt Q94513 1-282).
T5 sequence: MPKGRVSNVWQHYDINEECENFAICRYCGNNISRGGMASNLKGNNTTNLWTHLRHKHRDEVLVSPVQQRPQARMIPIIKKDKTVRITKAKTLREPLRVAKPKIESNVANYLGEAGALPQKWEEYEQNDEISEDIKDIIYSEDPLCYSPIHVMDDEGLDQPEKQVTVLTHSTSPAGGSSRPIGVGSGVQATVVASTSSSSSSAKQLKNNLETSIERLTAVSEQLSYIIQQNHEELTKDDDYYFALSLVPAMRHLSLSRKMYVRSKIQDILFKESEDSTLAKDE
Nature of the data set: competition; unlabeled DNAS vs 2.5 nM Cy3B-DNAS, 100 nM BEAF32; FA/FCS: 30 mM Tris/HCl pH 7.5, 100 mM NaCl, 20 uM ZnSO4, 5 mM mercaptoethanol, 0.01 mg/ml BSA, 0.004% Tween20, 2.5 nM DNA; EMSA: 150 mM NaCl, 30 mM Tris/HCl pH. The note with it: protein: recombinant; tags: N-term MBP; C-term 6xHis; blunt.

B1: DNAS (dsDNA)
DNA 1: AGAAGTCAGCGCGATAGCATCGATATTTTCGTGACACGCTTGTCATCCGATAGGTAGT
DNA 2: ACTACCTATCGGATGACAAGCGTGTCACGAAAATATCGATGCTATCGCGCTGACTTCT
Regarding B1, the binding result was “binds” in the data set with BEAF32 (BEAF32B);CP190-C, “no binding” in the data set with CP190-BTB/POZ, “no binding” with Chromator-C and “binds” in data set [1]. For the same molecule, the Ki (as a rule, a dissociation constant, usually derived from enzyme kinetics or from competition with a known ligand) in the data set with BEAF32 (BEAF32B) was 20 ± 4 nM.
